Data published in US9518995B2, “FKBP52-Tau interaction as a novel therapeutical target for treating the neurological disorders involving Tau dysfunction” (Institut National de la Sante et de la Recherche Medicale …, priority 2009, dated 2016).

B1: FKBP52: purified recombinant full length immunophilin FKBP52 (FK506-Binding Protein), cleaved from GST with thrombin (protein, UniProt Q02790 1-459, looked up)
chain: MTAEEMKATESGAQSAPLPMEGVDISPKQDEGVLKVIKREGTGTEMPMIGDRVFVHYTGWLLDGTKFDSSLDRKDKFSFDLGKGEVIKAWDIAIATMKVGEVCHITCKPEYAYGSAGSPPKIPPNATLVFEVELFEFKGEDLTEEEDGGIIRRIQTRGEGYAKPNEGAIVEVALEGYYKDKLFDQRELRFEIGEGENLDLPYGLERAIQRMEKGEHSIVYLKPSYAFGSVGKEKFQIPPNAELKYELHLKSFEKAKESWEMNSEEKLEQSTIVKERGTVYFKEGKYKQALLQYKKIVSWLEYESSFSNEEAQKAQALRLASHLNLAMCHLKLQAFSAAIESCNKALELDSNNEKGLFRRGEAHLAVNDFELARADFQKVLQLYPNNKAAKTQLAVCQQRIRRQLAREKKLYANMFERLAEEENKAKAEASSGDHPTDTEMKEEQKSNTAGSQSQVETEA
modifications: full-length

Experiments:
[1] = system: H7C2 cells; test: FKBP52 induction in H7C2 cells (Western blot); type: cell-based, rat; settings: after 5 days of Dox treatment
Method: Generation of H7C2 cells: The cDNA encoding rabbit FKBP52 was inserted into the HindIII and AccI restriction sites of the pTRE2 vector (Clontech) in order to give pTRE2-FKBP52. Transfection of 100 μg of pTR2-FKBP52 and 10 μg of pTK-hygromicin was carried out in a commercially available PC12 Tet-on cell line (Clontech) that expresses the reverse tetracycline controlled transactivator, using Lipofectamine™ (Invitrogen). Stably transfected cells were selected with 100 μg/ml hygromycin and screened individually. Cell culture: PC12 cells and H7C2 cells were grown in DMEM containing 10% (v/v) horse serum and 5% (v/v) FBS (Invitrogen) at 37° C. in 90% […]/10% CO2. The differentiated neuronal phenotype of cells grown on plastic dishes coated with 10 μg/ml poly(L)-lysine (Sigma), was induced by adding nerve growth factors (NGF) (Invitrogen) for 5 days. Primary cultures from cerebral cortex of embryonic day 17rat foetuses were carried out. Dissociated cells were plated (50,000 cells per ml) on glass coverslips coated with poly(L-ornithine) and cultured in a defined medium in 95% O2/5% CO2 at 37° C.

[2] = system: H7C2 cells; test: Quantitation of neurite outgrowth; type: cell-based, rat; settings: 50 nM NGF and Dox, compared to H7C2 not treated with Dox
Method: Cell culture: PC12 cells and H7C2 cells were grown in DMEM containing 10% (v/v) horse serum and 5% (v/v) FBS (Invitrogen) at 37° C. in 90% O2/10% CO2. The differentiated neuronal phenotype of cells grown on plastic dishes coated with 10 μg/ml poly(L)-lysine (Sigma), was induced by adding nerve growth factors (NGF) (Invitrogen) for 5 days. Primary cultures from cerebral cortex of embryonic day 17rat foetuses were carried out. Dissociated cells were plated (50,000 cells per ml) on glass coverslips coated with poly(L-ornithine) and cultured in a defined medium in 95% O2/5% CO2 at 37° C. Quantitation of neurite outgrowth: Random field photographs of PC12 and H7C2 cells, in each of three wells, were analyzed with Neuron J software. The average neurite length was determined by measuring the longest neurites of at least 200 cells randomly selected.

[3] = target: T1, HP-Tau (hyperphosphorylated recombinant hT40) (Homo sapiens, UniProt P10636); test: Dot blot assay, FKBP52 captured by spotted HP-Tau; type: binding; settings: 2.2 μg HP-Tau spotted; 0.5 μg FKBP52
T1 construct: made in house; host or cells: E. coli; then phosphorylated in vitro with adult rat brain cytosol in the presence of okadaic acid
T1 sequence (P10636 1-441 isoform P10636-8): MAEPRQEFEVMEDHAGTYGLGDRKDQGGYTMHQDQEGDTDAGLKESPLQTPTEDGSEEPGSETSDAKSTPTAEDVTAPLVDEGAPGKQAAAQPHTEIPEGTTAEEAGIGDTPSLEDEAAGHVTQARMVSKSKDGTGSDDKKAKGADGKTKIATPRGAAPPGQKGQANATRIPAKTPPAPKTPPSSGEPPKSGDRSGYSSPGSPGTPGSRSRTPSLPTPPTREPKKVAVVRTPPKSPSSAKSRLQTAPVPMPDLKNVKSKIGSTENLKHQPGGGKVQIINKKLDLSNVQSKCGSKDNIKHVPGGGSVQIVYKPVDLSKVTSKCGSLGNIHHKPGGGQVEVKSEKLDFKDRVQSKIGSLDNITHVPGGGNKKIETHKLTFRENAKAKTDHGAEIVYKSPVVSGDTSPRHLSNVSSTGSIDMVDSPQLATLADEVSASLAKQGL
Method: (§1) Phosphorylation and hyperphosphorylation of recombinant Tau: Rat brain extract was used as the source of kinase activity, as described (18). Briefly, recombinant hT40 was incubated with cytosol of adult rat brain, in the presence or absence of okadaic acid, to give HP-Tau (hyperphosphorylated-Tau) and P-Tau (phosphorylated-Tau), respectively.
(§2) Dot blot assay: 100 μl of buffer A containing different amounts of hT40 were applied to a nitrocellulose membrane, blocked with 5% non-fat milk in phosphate-buffered saline (PBS) containing 0.1% Tween 20 (PBS-T) at room temperature, washed with PBS-T and buffer A, followed by 2 h incubation at room temperature with 100 μl of buffer A containing […] recombinant FKBP52. The membranes were washed with buffer IP (50 mM Tris (pH 7.5)/150 mM NaCl/2 mM MgCl2/0.1% Brij97 (Sigma)/10% glycerol/protease inhibitors) and with PBS-T. After blocking with milk in PBS-T, the membranes were incubated with anti-FKBP52 761 antibody. […] Quantitation was performed with Quantity-one software using Chemidoc XRS fitted with a 16 bit CCD camera (Biorad).

[4] = target: T2, P-Tau (phosphorylated recombinant hT40) (Homo sapiens, UniProt P10636); test: Dot blot assay, FKBP52 captured by spotted P-Tau; type: binding; settings: same amount (2.2 μg) P-Tau as bait; 0.5 μg FKBP52
T2 construct: made in house; host or cells: E. coli; then phosphorylated in vitro with adult rat brain cytosol without okadaic acid
T2 sequence (P10636 1-441 isoform P10636-8): as above
Method: as §1, §2

[5] = target: T3, recombinant Tau (hT40) (Homo sapiens, UniProt P10636); test: Dot blot assay, FKBP52 captured by spotted recombinant Tau; type: binding
T3 construct: made in house; host or cells: E. coli
T3 sequence (P10636 1-441 isoform P10636-8): as above
Method: as §2

[6] = target: T4, tubulin polymerization induced by recombinant human Tau isoforms (Homo sapiens, UniProt P10636); test: Microtubule assembly assay (tubulin polymerization induced by recombinant Tau isoforms); type: biochemical, rat; settings: tubulin 1 mg/ml, 1.7 μM Tau isoforms, 3.5 μM protein, turbidity at 345 nm
T4 construct: made in house; host or cells: Tau: E. coli; tubulin: adult Sprague-Dawley rat brain
T4 sequence (P10636 2-441 isoform P10636-8): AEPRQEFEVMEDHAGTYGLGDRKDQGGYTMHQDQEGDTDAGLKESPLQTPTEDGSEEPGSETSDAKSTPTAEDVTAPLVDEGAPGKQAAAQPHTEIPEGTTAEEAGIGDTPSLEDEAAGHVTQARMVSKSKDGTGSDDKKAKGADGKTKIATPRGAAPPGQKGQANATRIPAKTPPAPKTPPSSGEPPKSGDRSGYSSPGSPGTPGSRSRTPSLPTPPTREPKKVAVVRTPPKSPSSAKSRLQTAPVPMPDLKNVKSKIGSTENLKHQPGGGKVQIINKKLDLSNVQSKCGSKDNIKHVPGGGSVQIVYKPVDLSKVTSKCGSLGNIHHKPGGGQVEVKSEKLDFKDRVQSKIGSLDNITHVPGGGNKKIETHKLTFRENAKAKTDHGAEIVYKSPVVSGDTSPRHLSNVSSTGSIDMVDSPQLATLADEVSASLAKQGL
Method: Preparation of Tubulin and microtubule assembly assay: Male adult Sprague-Dawley rats (body weight ˜250 g) were obtained from Janvier (Le Genest-St.-Isle, France). They were killed by decapitation, according to institutional guidelines, and whole brains were used immediately to prepare tubulin as described (9). Microtubule assembly assays were performed as in (9).
Protein purification and Overexpression of different Tau isoforms and FKBP52 protein: The six isoforms of human brain Tau were expressed in E. coli from clones hT40, hT39, hT37, hT34, hT24, hT23 and purified as described (28). Full length FKBP52 was affinity purified as in (23). For the Tubulin polymerization assay, FKBP52 bound to glutathione-Sepharose beads (GE Healthcare) were cleaved overnight at 4° C. with 2 units of thrombin (GE Healthcare) and dialyzed against buffer L (0.1 M Mes, 1 mM EGTA, 1 mM MgCL2, 0.1 mM EDTA) with 10% glycerol, and complemented before use to 1 mM GTP and 1 mM DTT and 10 μM PPACK (a potent irreversible inhibitor of thrombin) (Biomol).

[7] = target: T5, recombinant Tau protein (longest isoform) (Homo sapiens, UniProt P10636); test: Sedimentation assay of Tau polymerization in oxidative conditions; type: biochemical; settings: Tau 0.5 mg/ml
T5 construct: made in house
T5 sequence (P10636 1-441 isoform P10636-8): as the sequence (P10636 1-441 isoform P10636-8) above
Method: To investigate the effect of FKBP52 on Tau oligomerization we monitored by sedimentation assay the ability of recombinant Tau protein (here using the longest isoform) to polymerise in oxidative conditions in presence or absence of recombinant FKBP52. After dialysis of Tau (0.5 mg/ml) overnight at 4° C. in Tris 10 mM pH7.4 and centrifugation at 14000 rpm, quantitative western blotting was used to monitor the polymerization of Tau protein. […] This experiment means that Tau in oxidative conditions self polymerise and confirms, as already reported, the importance of cysteines in first step of Tau oligomerization process (Schweers et al 1995).

Molecule | FKBP52 induction [1] | decrease in neurite length [2] [%] | FKBP52 retained by HP-Tau [3] [%] | FKBP52 captured by P-Tau [4] [%] | FKBP52 retained by hT40 in the presence of cytosolic proteins ([5]; 2.2 μg hT40 with cytosol added just prior to spotting) [%] | FKBP52 retained by hT40 ([5]; 2.2 μg non phosphorylated hT40) [%] | retention by spotted Tau ([5]; different amounts of hT40 spotted, GST spot as control) | effect on microtubule formation induced by Tau [6] | Tau polymers in pellet ([7]; FKBP52 at 0.1 or 0.25 mg/ml) | Tau polymers in pellet ([7]; equimolecular or two times quantities of FKBP52 versus Tau) | Tau in pellet fraction ([7]; oxidative medium, equimolecular coincubation)
C[C@H]1c2cccc(O)c2C(=O)C2=C(O)[C@]3(O)C(=O)C(C(N)=O)=C(O)[C@@H](N(C)C)[C@@H]3[C@@H](O)[C@@H]21 [Dox, doxycycline] | about 4 fold | 40 | – | – | – | – | – | – | – | – | –
B1 | – | – | 73 | 41 | 6.6 | 3.5 | retained in a dose dependent manner | formation of microtubules was prevented | increasing Tau polymers in pellet | prevent the presence of pelletable polymers of Tau | no detectable presence of Tau in pellet fraction
